Data: the supplement of paper PMC7877785
± gives the uncertainty stated by the source.

Experiment: self-splicing fitness, log relative to wild type (ln ratio); higher = more splicing; Tetrahymena group I intron in knt gene, E. coli kanamycin selection, DiMSum; sequences stand for … in CUCUCU…GGAGGGAAAAGUUAUCAGGCAUGCACCUGGUAGCUAGUCUUUAAACCAAUAGAUUGCAUCGGUUUAAAAGGCAAGACCGUCAAAUUGCGGGAAAGGGGUCAACAGCCGUUCAGUACCAAGUCUCAGGGGAAACUUUGAGAUGGCCUUGCAAAGGGUAUGGUAAUAAGCUGACGGACAUGGUCCUAACCACGCAGCCAAGUCCUAAGUCAACAGAUCUUCUGUUGAUAUGGAUGCAGUUCACAGACUAAAUGUCGGUCGGGGAAGAUGUAUUCUUCUCAUAAGAUAUAGUCGGACCUCUCCUUAAUGGGAGCUAGCGGAUGAAGUGAUGCAACACUGGAGCCGCUGGGAACUAAUUUGUAUGCGAAAGUAUAUUGAUUAGUUUUGGAGUACUCGUGGUCG
Outline: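 DiMSum derived fitness as the error-weighted combination of fold changes across replicates, kanamycin versus no kanamycin, normalised to wild type. E. coli BL21(DE3) held the library, which randomised all eight P1ex-region intron nucleotides within the knt kanamycin-resistance gene on pET-22b(+). Six replicate transformations grew overnight at 37°C or 30°C on LB agar with or without 25 μg/mL kanamycin, also containing 100 μg/mL carbenicillin, 50 μM IPTG and 0.2% rhamnose, and pooled colonies were amplicon-sequenced on an Illumina HiSeq 2500.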

Sequence	self-splicing fitness (ln) (30 °C)	self-splicing fitness (ln) (37 °C)
CAGGAGCAAUAUUACGUAAA	-1.92 ± 0.25	-1.24 ± 0.31
CGGGAGCAAUAUUACGGCGU	-3.6 ± 0.26	-1.73 ± 0.21
CAGCAGCAAUAUUACGAAUG	-1.69 ± 0.061	0.012 ± 0.083
AUCGAGCAAUAUUACGGGCU	-4.05 ± 0.23	-2.94 ± 0.26
AGCUAGCAAUAUUACGUUGA	-2.68 ± 0.23	-1.69 ± 0.16
GAGGAGCAAUAUUACGCUGA	-2.84 ± 0.49	-2.07 ± 0.34
AGAAAGCAAUAUUACGCGUG	-1.72 ± 0.087	-0.548 ± 0.093
AGGGAGCAAUAUUACGCACU	-3.18 ± 0.4	-0.0242 ± 0.24
CUGAAGCAAUAUUACGACUA	-1.29 ± 0.16	-0.875 ± 0.21
UCUGAGCAAUAUUACGUCGA	-0.0432 ± 0.089	0.353 ± 0.12
GCGAAGCAAUAUUACGUGGA	-1.9 ± 0.13	-2.88 ± 0.21
CGUCAGCAAUAUUACGGCUC	-1.43 ± 0.081	0.225 ± 0.088
CAGUAGCAAUAUUACGUAUU	-3.48 ± 0.2	-1.81 ± 0.2
UCGAAGCAAUAUUACGCUUG		-2.64 ± 0.26
AGUUAGCAAUAUUACGUUAA	-3.56 ± 0.38	-1.48 ± 0.26
GUAGAGCAAUAUUACGGACA	-0.864 ± 0.17	-1.72 ± 0.27
CAUGAGCAAUAUUACGACCU	-2.47 ± 0.29	-0.931 ± 0.26

Sequence	self-splicing fitness (ln) (30 °C)	self-splicing fitness (ln) (37 °C)
AACGAGCAAUAUUACGGCAA	-1.49 ± 0.27	-1.9 ± 0.24
UUCAAGCAAUAUUACGCUUU	-5.08 ± 0.41	-2.37 ± 0.28
CGCAAGCAAUAUUACGGGCU	-1.68 ± 0.12	-0.144 ± 0.16
UGUUAGCAAUAUUACGACUU	-0.357 ± 0.11	0.12 ± 0.12
ACUGAGCAAUAUUACGCCCC	-2.6 ± 0.34	
CCUAAGCAAUAUUACGGCCU	-1.9 ± 0.16	-1.84 ± 0.37
ACGUAGCAAUAUUACGCGCG	-1.28 ± 0.15	-0.103 ± 0.18
GUCUAGCAAUAUUACGCCAA		-0.981 ± 0.29
GGCAAGCAAUAUUACGGUAU	-1.17 ± 0.068	-0.119 ± 0.077
AUAAAGCAAUAUUACGACUA	0.277 ± 0.083	0.129 ± 0.1
AUCAAGCAAUAUUACGGUGU	-1.7 ± 0.076	-1.11 ± 0.088
ACAAAGCAAUAUUACGCUUG	-1.62 ± 0.057	-0.984 ± 0.079
ACGAAGCAAUAUUACGGCAG	-2.17 ± 0.13	-1.58 ± 0.14
CUUGAGCAAUAUUACGCGGC	-2.63 ± 0.27	-1.43 ± 0.43
UGUCAGCAAUAUUACGGGGA	-1.32 ± 0.061	-0.476 ± 0.07
GACAAGCAAUAUUACGACCC	0.926 ± 0.23	-0.477 ± 0.39
AUUAAGCAAUAUUACGAGUG	-2.42 ± 0.1	-2.37 ± 0.14
